From US20200262877A1, “ION CHANNEL-BINDING PEPTIDES AND METHODS OF USE THEREOF” (priority 2017, published 2020)

Tests used:
[1] = molecular target: T1, 5HT3a (Homo sapiens, UniProt P46098); experiment: Ion channel panel (IonWorks Barracuda): 5HT3a; format: cell-based
T1 construct: host or cells: HEK293 or CHO
T1 sequence (P46098 whole entry, looked up): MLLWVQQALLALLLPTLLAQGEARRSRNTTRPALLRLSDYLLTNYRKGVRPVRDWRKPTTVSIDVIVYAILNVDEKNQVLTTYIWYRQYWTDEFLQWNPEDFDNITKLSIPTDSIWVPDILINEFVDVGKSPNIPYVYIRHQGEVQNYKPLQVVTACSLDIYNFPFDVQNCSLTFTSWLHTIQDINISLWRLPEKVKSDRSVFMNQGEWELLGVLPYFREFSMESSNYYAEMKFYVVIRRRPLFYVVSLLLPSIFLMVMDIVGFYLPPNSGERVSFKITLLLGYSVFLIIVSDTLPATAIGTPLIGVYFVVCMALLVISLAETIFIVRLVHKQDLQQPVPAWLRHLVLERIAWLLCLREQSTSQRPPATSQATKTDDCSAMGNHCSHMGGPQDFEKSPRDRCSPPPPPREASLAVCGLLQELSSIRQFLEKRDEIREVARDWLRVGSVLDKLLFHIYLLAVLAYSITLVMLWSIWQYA
Summary of the method: (§1)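 Peptides were tested in duplicate at final 20 μM and 200 nM, with concentration set by amino acid analysis, in HEPES-buffered saline. They were applied for at least 5 min to HEK293 or CHO cells transfected with each channel. Currents were expressed as % inhibition, 1-(Ipeptide/Icontrol)×100, or % activation, Ipeptide/Icontrol×100, against a channel-matched reference compound.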

[2] = molecular target: T2, α3β4 (Homo sapiens, UniProt P30926+P32297); experiment: Ion channel panel (IonWorks Barracuda): α3β4; format: cell-based; details: 100% = no change, <100% = inhibition
T2 construct: host or cells: HEK293 or CHO
Summary of the method: as §1

[3] = molecular target: T3, α4β2 (Homo sapiens, UniProt P17787+P43681); experiment: Ion channel panel (IonWorks Barracuda): α4β2; format: cell-based; details: 100% = no change, <100% = inhibition
T3 construct: host or cells: HEK293 or CHO
Summary of the method: as §1

[4] = molecular target: T4, Cav2.1 (Homo sapiens, UniProt O00555); experiment: cell-based; details: 100% = no change, <100% = inhibition
T4 construct: host or cells: HEK293 or CHO
Summary of the method: as §1

[5] = molecular target: T5, Cav2.2 (Homo sapiens, UniProt Q00975); experiment: cell-based; details: 100% = no change, <100% = inhibition
T5 construct: host or cells: HEK293 or CHO
Summary of the method: as §1

[6] = molecular target: T6, Kv2.1 (Homo sapiens, UniProt Q14721); experiment: cell-based; details: 100% = no change, <100% = inhibition
T6 construct: host or cells: HEK293 or CHO
Summary of the method: as §1

[7] = system: GABA; experiment: Ion channel panel (IonWorks Barracuda): GABA; format: cell-based; details: 100% = no change, <100% = inhibition
Summary of the method: as §1

[8] = molecular target: Nav1.5 (Homo sapiens, UniProt Q14524); experiment: in vitro; details: 100% = no change; for Activity of Nav1.5 with peptide, expressed as a percentage of the reference compound: peptide at 0.2 μM; for Activity of Nav1.5 with peptide (percentage of the reference compound): peptide at 20 μM
Summary of the method: as §1

[9] = molecular target: hERG (Homo sapiens, UniProt Q12809); experiment: in vitro; details: 100% = no change, <100% = inhibition
Summary of the method: as §1

[10] = molecular target: T7, Kir2.1 (Homo sapiens, UniProt P63252); experiment: Ion channel panel (IonWorks Barracuda): Kir2.1; format: cell-based; details: 100% = no change, <100% = inhibition
T7 construct: host or cells: HEK293 or CHO
Summary of the method: as §1

[11] = molecular target: T8, Kv1.1 (Homo sapiens, UniProt Q09470); experiment: cell-based; format: cell-based; details: 100% = no change, <100% = inhibition
T8 construct: host or cells: HEK293 or CHO
Summary of the method: as §1

[12] = molecular target: T9, Kv1.2 (Homo sapiens, UniProt P16389); experiment: cell-based; format: cell-based; details: 100% = no change, <100% = inhibition
T9 construct: host or cells: HEK293 or CHO
Summary of the method: as §1

[13] = molecular target: T10, Kv1.3 (Homo sapiens, UniProt P22001); experiment: cell-based; format: cell-based; details: 100% = no change, <100% = inhibition
T10 construct: host or cells: HEK293 or CHO
Summary of the method: as §1

[14] = molecular target: T11, Nav1.7 (Homo sapiens, UniProt Q15858); experiment: cell-based; format: cell-based; details: 100% = no change; for Activity of Nav1.7 with peptide, expressed as a percentage of the reference compound: peptide at 0.2 μM; for Activity of Nav1.7 with peptide (percentage of the reference compound): peptide at 20 μM
T11 construct: host or cells: HEK293 or CHO

[15] = molecular target: T12, NR2A (Homo sapiens, UniProt Q12879); experiment: Ion channel panel (IonWorks Barracuda): NR2A; format: cell-based; details: 100% = no change, <100% = inhibition
T12 construct: host or cells: HEK293 or CHO
Summary of the method: as §1

[16] = molecular target: T13, NR2B (Homo sapiens, UniProt Q13224); experiment: Ion channel panel (IonWorks Barracuda): NR2B; format: cell-based; details: 100% = no change, <100% = inhibition
T13 construct: host or cells: HEK293 or CHO
Summary of the method: as §1

[17] = molecular target: T14, TRPA1 (Homo sapiens, UniProt O75762); experiment: Ion channel panel (IonWorks Barracuda): TRPA1; format: cell-based; details: 100% = no change, <100% = inhibition
T14 construct: host or cells: HEK293 or CHO
Summary of the method: as §1

[18] = molecular target: T15, TRPV1 (Homo sapiens, UniProt Q8NER1); experiment: Ion channel panel (IonWorks Barracuda): TRPV1; format: cell-based; details: 100% = no change, <100% = inhibition
T15 construct: host or cells: HEK293 or CHO
Summary of the method: as §1

[19] = first of two Nav1.5 columns (probably TP1)
[20] = second of two Nav1.5 columns (probably TP2)
[21] = first of two Nav1.7 columns (probably TP1)
[22] = second of two Nav1.7 columns (probably TP2)

T11 sequence (Q15858 whole entry): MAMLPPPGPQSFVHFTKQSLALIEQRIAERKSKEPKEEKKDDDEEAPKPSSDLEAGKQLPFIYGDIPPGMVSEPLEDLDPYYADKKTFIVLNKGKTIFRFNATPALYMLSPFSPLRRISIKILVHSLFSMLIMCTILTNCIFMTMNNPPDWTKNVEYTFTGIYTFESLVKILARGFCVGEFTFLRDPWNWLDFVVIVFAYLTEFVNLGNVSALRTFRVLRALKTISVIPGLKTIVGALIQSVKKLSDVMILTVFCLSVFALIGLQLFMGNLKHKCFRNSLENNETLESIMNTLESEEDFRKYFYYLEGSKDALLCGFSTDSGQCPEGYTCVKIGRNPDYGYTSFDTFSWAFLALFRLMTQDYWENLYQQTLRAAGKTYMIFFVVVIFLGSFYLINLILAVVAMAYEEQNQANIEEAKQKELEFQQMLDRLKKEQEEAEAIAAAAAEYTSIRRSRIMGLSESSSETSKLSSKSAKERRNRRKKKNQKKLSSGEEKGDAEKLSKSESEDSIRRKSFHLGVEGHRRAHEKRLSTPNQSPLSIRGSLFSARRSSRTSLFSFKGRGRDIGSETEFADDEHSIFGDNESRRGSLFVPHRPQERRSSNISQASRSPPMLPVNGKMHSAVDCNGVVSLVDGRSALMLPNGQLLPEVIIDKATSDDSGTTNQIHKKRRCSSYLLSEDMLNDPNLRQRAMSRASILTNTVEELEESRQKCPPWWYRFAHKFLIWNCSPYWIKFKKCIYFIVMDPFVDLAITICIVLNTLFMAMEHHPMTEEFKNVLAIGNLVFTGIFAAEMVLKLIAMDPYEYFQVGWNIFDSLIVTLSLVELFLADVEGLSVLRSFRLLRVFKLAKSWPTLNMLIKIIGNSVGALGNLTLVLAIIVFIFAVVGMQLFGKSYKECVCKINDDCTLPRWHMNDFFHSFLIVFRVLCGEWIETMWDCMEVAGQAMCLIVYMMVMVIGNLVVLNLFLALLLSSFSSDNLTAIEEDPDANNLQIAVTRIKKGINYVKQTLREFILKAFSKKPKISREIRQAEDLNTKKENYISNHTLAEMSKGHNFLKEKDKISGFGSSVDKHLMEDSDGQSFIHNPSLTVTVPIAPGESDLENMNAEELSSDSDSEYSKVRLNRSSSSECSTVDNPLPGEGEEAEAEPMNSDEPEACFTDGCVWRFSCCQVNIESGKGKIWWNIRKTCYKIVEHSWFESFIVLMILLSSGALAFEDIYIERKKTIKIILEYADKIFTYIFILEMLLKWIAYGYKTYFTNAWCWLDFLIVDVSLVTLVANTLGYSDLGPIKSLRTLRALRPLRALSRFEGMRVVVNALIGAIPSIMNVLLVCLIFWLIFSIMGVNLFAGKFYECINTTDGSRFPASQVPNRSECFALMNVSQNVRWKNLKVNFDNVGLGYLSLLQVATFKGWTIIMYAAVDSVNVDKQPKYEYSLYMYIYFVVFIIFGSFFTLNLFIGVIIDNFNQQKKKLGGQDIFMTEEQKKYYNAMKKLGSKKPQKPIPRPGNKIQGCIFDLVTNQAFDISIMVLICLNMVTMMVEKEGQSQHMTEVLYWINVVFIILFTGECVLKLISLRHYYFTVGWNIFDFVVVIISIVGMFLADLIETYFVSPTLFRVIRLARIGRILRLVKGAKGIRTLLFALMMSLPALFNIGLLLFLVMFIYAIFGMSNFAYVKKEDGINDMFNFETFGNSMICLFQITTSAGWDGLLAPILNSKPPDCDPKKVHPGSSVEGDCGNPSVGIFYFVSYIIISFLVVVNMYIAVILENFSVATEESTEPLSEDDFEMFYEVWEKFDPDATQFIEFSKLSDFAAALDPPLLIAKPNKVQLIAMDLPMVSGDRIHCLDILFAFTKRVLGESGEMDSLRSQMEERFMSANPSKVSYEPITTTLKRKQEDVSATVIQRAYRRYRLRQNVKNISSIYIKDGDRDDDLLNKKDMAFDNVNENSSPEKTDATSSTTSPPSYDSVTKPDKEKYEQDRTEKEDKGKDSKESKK
Sequence of Nav1.5 (Q14524 whole entry): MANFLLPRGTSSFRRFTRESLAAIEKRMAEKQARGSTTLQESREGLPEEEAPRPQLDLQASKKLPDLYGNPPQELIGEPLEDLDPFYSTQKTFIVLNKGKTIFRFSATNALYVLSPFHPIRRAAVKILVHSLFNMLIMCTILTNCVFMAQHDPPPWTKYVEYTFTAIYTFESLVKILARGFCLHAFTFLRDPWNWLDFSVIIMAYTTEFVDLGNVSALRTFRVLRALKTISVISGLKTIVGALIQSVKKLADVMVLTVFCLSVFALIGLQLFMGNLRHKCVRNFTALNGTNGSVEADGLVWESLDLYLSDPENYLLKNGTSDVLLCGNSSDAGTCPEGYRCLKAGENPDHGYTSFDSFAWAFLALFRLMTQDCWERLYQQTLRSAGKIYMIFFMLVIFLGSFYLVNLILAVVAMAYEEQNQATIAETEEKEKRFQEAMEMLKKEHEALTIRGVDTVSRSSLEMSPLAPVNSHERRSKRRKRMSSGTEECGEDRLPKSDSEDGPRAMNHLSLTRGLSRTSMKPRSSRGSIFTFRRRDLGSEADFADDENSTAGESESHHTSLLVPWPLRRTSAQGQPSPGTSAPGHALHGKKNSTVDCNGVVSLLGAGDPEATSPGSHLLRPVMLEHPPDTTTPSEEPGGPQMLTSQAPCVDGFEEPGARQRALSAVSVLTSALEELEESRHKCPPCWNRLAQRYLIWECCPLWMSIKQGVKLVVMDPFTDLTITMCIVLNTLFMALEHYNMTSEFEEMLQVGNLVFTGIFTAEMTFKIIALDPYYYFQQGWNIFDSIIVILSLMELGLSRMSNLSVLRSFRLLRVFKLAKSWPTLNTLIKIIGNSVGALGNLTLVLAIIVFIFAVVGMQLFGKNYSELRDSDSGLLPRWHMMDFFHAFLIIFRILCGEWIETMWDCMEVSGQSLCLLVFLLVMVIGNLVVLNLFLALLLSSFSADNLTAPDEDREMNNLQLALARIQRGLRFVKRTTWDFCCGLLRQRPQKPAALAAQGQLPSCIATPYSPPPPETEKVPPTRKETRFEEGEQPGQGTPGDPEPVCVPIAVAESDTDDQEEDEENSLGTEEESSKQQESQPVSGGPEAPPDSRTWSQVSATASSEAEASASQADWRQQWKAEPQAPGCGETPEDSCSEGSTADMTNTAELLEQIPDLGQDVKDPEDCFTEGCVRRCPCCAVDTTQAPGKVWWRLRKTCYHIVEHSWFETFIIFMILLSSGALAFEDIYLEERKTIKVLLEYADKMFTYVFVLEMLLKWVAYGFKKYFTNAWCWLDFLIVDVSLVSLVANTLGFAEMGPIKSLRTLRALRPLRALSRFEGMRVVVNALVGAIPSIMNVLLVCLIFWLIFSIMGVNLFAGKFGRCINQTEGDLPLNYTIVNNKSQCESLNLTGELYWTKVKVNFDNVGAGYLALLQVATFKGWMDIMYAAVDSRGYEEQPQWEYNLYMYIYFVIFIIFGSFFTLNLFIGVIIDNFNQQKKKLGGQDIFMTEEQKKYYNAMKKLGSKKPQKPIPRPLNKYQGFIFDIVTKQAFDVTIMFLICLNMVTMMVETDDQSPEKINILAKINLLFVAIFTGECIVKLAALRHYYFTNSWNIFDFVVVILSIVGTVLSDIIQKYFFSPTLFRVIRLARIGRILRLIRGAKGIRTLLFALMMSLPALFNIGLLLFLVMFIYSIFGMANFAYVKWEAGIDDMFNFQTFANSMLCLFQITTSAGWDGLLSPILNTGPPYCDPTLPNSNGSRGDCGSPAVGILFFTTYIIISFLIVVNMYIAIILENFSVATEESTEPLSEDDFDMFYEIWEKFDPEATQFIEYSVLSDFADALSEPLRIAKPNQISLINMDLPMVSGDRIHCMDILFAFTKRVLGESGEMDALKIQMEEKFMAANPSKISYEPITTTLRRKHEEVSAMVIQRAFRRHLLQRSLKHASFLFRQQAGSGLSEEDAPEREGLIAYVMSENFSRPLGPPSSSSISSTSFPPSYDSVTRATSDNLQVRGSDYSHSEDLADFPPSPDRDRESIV
T3 sequence (P43681 29-627): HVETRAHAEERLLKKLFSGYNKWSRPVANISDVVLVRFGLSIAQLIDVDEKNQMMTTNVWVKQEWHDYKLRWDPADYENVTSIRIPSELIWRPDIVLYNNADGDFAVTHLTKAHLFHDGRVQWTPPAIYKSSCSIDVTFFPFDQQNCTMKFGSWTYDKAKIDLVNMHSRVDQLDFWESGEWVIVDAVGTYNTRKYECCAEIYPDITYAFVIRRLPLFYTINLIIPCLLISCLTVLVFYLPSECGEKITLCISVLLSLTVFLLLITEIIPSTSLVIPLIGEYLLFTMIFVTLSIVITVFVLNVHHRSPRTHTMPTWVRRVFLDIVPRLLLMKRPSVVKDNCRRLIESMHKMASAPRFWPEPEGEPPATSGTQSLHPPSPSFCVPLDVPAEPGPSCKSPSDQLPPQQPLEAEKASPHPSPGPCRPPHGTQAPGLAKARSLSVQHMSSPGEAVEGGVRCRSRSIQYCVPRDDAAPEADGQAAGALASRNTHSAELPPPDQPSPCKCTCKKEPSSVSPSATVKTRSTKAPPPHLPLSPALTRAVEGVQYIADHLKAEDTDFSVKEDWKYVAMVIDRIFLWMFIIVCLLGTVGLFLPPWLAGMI
T3 sequence (P17787 26-502): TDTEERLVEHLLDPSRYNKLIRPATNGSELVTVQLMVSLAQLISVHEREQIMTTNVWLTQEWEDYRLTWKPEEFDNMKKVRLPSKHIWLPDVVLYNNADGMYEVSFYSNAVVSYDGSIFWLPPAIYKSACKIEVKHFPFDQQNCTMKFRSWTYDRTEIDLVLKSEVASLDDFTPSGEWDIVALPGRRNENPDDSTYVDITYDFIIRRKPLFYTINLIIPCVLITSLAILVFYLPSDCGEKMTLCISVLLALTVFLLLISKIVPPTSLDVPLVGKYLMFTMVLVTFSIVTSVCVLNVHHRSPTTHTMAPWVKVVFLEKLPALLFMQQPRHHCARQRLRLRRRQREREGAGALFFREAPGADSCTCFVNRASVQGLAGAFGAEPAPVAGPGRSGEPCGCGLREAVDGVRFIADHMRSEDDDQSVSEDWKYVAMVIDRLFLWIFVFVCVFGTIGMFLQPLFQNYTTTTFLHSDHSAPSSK

Substance: 26 (GSVVIGQRCYRSPDCYSACKKLVGKATGKCTNGRCDC) [compound 26]
- Activity of 5HT3a with peptide (percentage of the reference compound) [1]: 96%
- Activity of 5HT3a with peptide, expressed as a percentage of the reference compound [1]: 82%
- Activity of a3b4 with peptide, expressed as a percentage of the reference compound ([2]; peptide at 0.2 μM): 88%
- Activity of a3b4 with peptide (percentage of the reference compound) ([2]; peptide at 20 μM): 91%
- Activity of a4b2 with peptide, expressed as a percentage of the reference compound ([3]; peptide at 0.2 μM): 85%
- Activity of a4b2 with peptide (percentage of the reference compound) ([3]; peptide at 20 μM): 89%
- Activity of Cav2.1 with peptide, expressed as a percentage of the reference compound ([4]; peptide at 0.2 μM): 115%
- Activity of Cav2.1 with peptide (percentage of the reference compound) ([4]; peptide at 20 μM): 85%
- Activity of Cav2.2 with peptide, expressed as a percentage of the reference compound ([5]; peptide at 0.2 μM): 103%
- Activity of Cav2.2 with peptide (percentage of the reference compound) ([5]; peptide at 20 μM): 121%
- Activity of Kv2.1 with peptide, expressed as a percentage of the reference compound ([6]; peptide at 0.2 μM): 98%
- Activity of Kv2.1 with peptide (percentage of the reference compound) ([6]; peptide at 20 μM): 102%
- Activity of GABA with peptide, expressed as a percentage of the reference compound ([7]; peptide at 0.2 μM): 117%
- Activity of GABA with peptide (percentage of the reference compound) ([7]; peptide at 20 μM): 106%
- Activity of Nav1.5 with peptide, expressed as a percentage of the reference compound [8, 19]: 92%
- Activity of Nav1.5 with peptide, expressed as a percentage of the reference compound [8, 20]: 91%
- Activity of Nav1.5 with peptide (percentage of the reference compound) [8, 19]: 90%
- Activity of Nav1.5 with peptide (percentage of the reference compound) [8, 20]: 94%
- Activity of hERG with peptide, expressed as a percentage of the reference compound ([9]; peptide at 0.2 μM): 80%
- Activity of hERG with peptide (percentage of the reference compound) ([9]; peptide at 20 μM): 74%
- Activity of Kir2.1 with peptide, expressed as a percentage of the reference compound ([10]; peptide at 0.2 μM): 102%
- Activity of Kir2.1 with peptide (percentage of the reference compound) ([10]; peptide at 20 μM): 93%
- Activity of Kv1.1 with peptide, expressed as a percentage of the reference compound ([11]; peptide at 0.2 μM): 66%
- Activity of Kv1.1 with peptide (percentage of the reference compound) ([11]; peptide at 20 μM): 85%
- Activity of Kv1.2 with peptide, expressed as a percentage of the reference compound ([12]; peptide at 0.2 μM): 79%
- Activity of Kv1.2 with peptide (percentage of the reference compound) ([12]; peptide at 20 μM): 47%
- Activity of Kv1.3 with peptide, expressed as a percentage of the reference compound ([13]; peptide at 0.2 μM): 94%
- Activity of Kv1.3 with peptide (percentage of the reference compound) ([13]; peptide at 20 μM): 77%
- Activity of Nav1.7 with peptide, expressed as a percentage of the reference compound [14, 21]: 81%
- Activity of Nav1.7 with peptide, expressed as a percentage of the reference compound [14, 22]: 74%
- Activity of Nav1.7 with peptide (percentage of the reference compound) [14, 21]: 73%
- Activity of Nav1.7 with peptide (percentage of the reference compound) [14, 22]: 60%
- Activity of NR2A with peptide, expressed as a percentage of the reference compound ([15]; peptide at 0.2 μM): 113%
- Activity of NR2A with peptide (percentage of the reference compound) ([15]; peptide at 20 μM): 114%
- Activity of NR2B with peptide, expressed as a percentage of the reference compound ([16]; peptide at 0.2 μM): 86%
- Activity of NR2B with peptide (percentage of the reference compound) ([16]; peptide at 20 μM): 79%
- Activity of TRPA1 with peptide, expressed as a percentage of the reference compound ([17]; peptide at 0.2 μM): 109%
- Activity of TRPA1 with peptide (percentage of the reference compound) ([17]; peptide at 20 μM): 115%
- Activity of TRPV1 with peptide, expressed as a percentage of the reference compound ([18]; peptide at 0.2 μM): 116%
- Activity of TRPV1 with peptide (percentage of the reference compound) ([18]; peptide at 20 μM): 92%
